Our source for the binding signal values is publication PMC6555819, “Comprehensive study of nuclear receptor DNA binding provides a revised framework for understanding receptor specificity”.

To fix the notation:
B1: NRC3_wobSeed124_DR5_C17A_o1 (dsDNA)
DNA 1: GCCCTACTGGGCCATTAAGAGGTCATTGATCATATGGCGATTGACAGCGTAGAATGAAGG
DNA 2: CCTTCATTCTACGCTGTCAATCGCCATATGATCAATGACCTCTTAATGGCCCAGTAGGGC
B2: NRC3_wobSeed124_DR5_T15C_o1 (dsDNA)
DNA 1: GCCCTACTGGGCCACTCAGAGGTCATTGATCATATGGCGATTGACAGCGTAGAATGAAGG
DNA 2: CCTTCATTCTACGCTGTCAATCGCCATATGATCAATGACCTCTGAGTGGCCCAGTAGGGC
B3: NRC3_wobSeed124_DR5_T27C_o1 (dsDNA)
DNA 1: GCCCTACTGGGCCATTCAGAGGTCATCGATCATATGGCGATTGACAGCGTAGAATGAAGG
DNA 2: CCTTCATTCTACGCTGTCAATCGCCATATGATCGATGACCTCTGAATGGCCCAGTAGGGC
B4: NRC3_wobSeed76_DR3_C13A_o1 (dsDNA)
DNA 1: GCCCTACTGGGCAAAAAAGGTCATTGATGCCGATAAGCGATTGACAGCGTAGAATGAAGG
DNA 2: CCTTCATTCTACGCTGTCAATCGCTTATCGGCATCAATGACCTTTTTTGCCCAGTAGGGC
B5: NRC3_wobSeed93_DR3_T17A_o1 (dsDNA)
DNA 1: GCAGTCAAAGTTCATCAAGGTAACGTAAGATATGCTGCGATTGACAGCGTAGAATGAAGG
DNA 2: CCTTCATTCTACGCTGTCAATCGCAGCATATCTTACGTTACCTTGATGAACTTTGACTGC
B6: NRC3_wobSeed2_DR0_C4A_o1 (dsDNA)
DNA 1: GCCATAGTTGGTCAAGGTCACACACGCTATAGGTACGCGATTGACAGCGTAGAATGAAGG
DNA 2: CCTTCATTCTACGCTGTCAATCGCGTACCTATAGCGTGTGTGACCTTGACCAACTATGGC
B7: NRC3_wobSeed2_DR0_A22G_o1 (dsDNA)
DNA 1: GCCCTAGTTGGTCAAGGTCACGCACGCTATAGGTACGCGATTGACAGCGTAGAATGAAGG
DNA 2: CCTTCATTCTACGCTGTCAATCGCGTACCTATAGCGTGCGTGACCTTGACCAACTAGGGC
B8: NRC3_wobSeed89_DR3_A9G_o1 (dsDNA)
DNA 1: GCCTATGTGGGTTAAGGGGGTCATTCAGTTTGAAAGGCGATTGACAGCGTAGAATGAAGG
DNA 2: CCTTCATTCTACGCTGTCAATCGCCTTTCAAACTGAATGACCCCCTTAACCCACATAGGC
B9: NRC3_wobSeed125_DR5_G17T_o1 (dsDNA)
DNA 1: GCCCTTACGGGTCACTTACAGGTTATAGCATTTGGAGCGATTGACAGCGTAGAATGAAGG
DNA 2: CCTTCATTCTACGCTGTCAATCGCTCCAAATGCTATAACCTGTAAGTGACCCGTAAGGGC
B10: NRC3_wobSeed50_DR2_A17G_o1 (dsDNA)
DNA 1: GCCCTAGTTGGTCAGGGGGTCACACACCGGATATGAGCGATTGACAGCGTAGAATGAAGG
DNA 2: CCTTCATTCTACGCTGTCAATCGCTCATATCCGGTGTGTGACCCCCTGACCAACTAGGGC
B11: NRC3_wobSeed50_DR2_T9G_o1 (dsDNA)
DNA 1: GCCCTAGTGGGTCAGGAGGTCACACACCGGATATGAGCGATTGACAGCGTAGAATGAAGG
DNA 2: CCTTCATTCTACGCTGTCAATCGCTCATATCCGGTGTGTGACCTCCTGACCCACTAGGGC
B12: NRC3_wobSeed27_DR1_A9G_o1 (dsDNA)
DNA 1: GCACTCGGGGGACAAAGGTCAGAGCTACGCCAGTGAGCGATTGACAGCGTAGAATGAAGG
DNA 2: CCTTCATTCTACGCTGTCAATCGCTCACTGGCGTAGCTCTGACCTTTGTCCCCCGAGTGC
B13: NRC3_wobSeed27_DR1_C4G_o1 (dsDNA)
DNA 1: GCAGTCGGAGGACAAAGGTCAGAGCTACGCCAGTGAGCGATTGACAGCGTAGAATGAAGG
DNA 2: CCTTCATTCTACGCTGTCAATCGCTCACTGGCGTAGCTCTGACCTTTGTCCTCCGACTGC
B14: NRC3_wobSeed49_DR2_C7A_o1 (dsDNA)
DNA 1: GCCAAAATAGGTCAAGAGGTCAAAGTCCGCTTCCCGGCGATTGACAGCGTAGAATGAAGG
DNA 2: CCTTCATTCTACGCTGTCAATCGCCGGGAAGCGGACTTTGACCTCTTGACCTATTTTGGC
B15: NRC3_wobSeed74_DR3_A18G_o1 (dsDNA)
DNA 1: GCTCTAGTTGGTCACGGGGGTCACACACGACGGGTAGCGATTGACAGCGTAGAATGAAGG
DNA 2: CCTTCATTCTACGCTGTCAATCGCTACCCGTCGTGTGTGACCCCCGTGACCAACTAGAGC
B16: NRC3_wobSeed74_DR3_G10C_o1 (dsDNA)
DNA 1: GCTCTAGTTCGTCACGGAGGTCACACACGACGGGTAGCGATTGACAGCGTAGAATGAAGG
DNA 2: CCTTCATTCTACGCTGTCAATCGCTACCCGTCGTGTGTGACCTCCGTGACGAACTAGAGC
B17: NRC3_wobSeed74_DR3_G7C_o1 (dsDNA)
DNA 1: GCTCTACTTGGTCACGGAGGTCACACACGACGGGTAGCGATTGACAGCGTAGAATGAAGG
DNA 2: CCTTCATTCTACGCTGTCAATCGCTACCCGTCGTGTGTGACCTCCGTGACCAAGTAGAGC
B18: NRC3_wobSeed26_DR1_C22A_o1 (dsDNA)
DNA 1: GCTCTAGTTGGTCAAAGGTCAAACACTCGAAATGCGGCGATTGACAGCGTAGAATGAAGG
DNA 2: CCTTCATTCTACGCTGTCAATCGCCGCATTTCGAGTGTTTGACCTTTGACCAACTAGAGC
B19: NRC3_wobSeed98_DR4_C29A_o1 (dsDNA)
DNA 1: GCACTAGTTGGTCAGCTGAGGTCACACAAAATTCGGGCGATTGACAGCGTAGAATGAAGG
DNA 2: CCTTCATTCTACGCTGTCAATCGCCCGAATTTTGTGTGACCTCAGCTGACCAACTAGTGC
B20: NRC3_wobSeed98_DR4_A19G_o1 (dsDNA)
DNA 1: GCACTAGTTGGTCAGCTGGGGTCACACACAATTCGGGCGATTGACAGCGTAGAATGAAGG
DNA 2: CCTTCATTCTACGCTGTCAATCGCCCGAATTGTGTGTGACCCCAGCTGACCAACTAGTGC
B21: NRC3_wobSeed58_DR2_C5G_o1 (dsDNA)
DNA 1: GCATGGAAAGGTCGTGAGGTGAGTATACAGAAAGGCGCGATTGACAGCGTAGAATGAAGG
DNA 2: CCTTCATTCTACGCTGTCAATCGCGCCTTTCTGTATACTCACCTCACGACCTTTCCATGC
B22: NRC3_wobSeed58_DR2_A25T_o1 (dsDNA)
DNA 1: GCATCGAAAGGTCGTGAGGTGAGTTTACAGAAAGGCGCGATTGACAGCGTAGAATGAAGG
DNA 2: CCTTCATTCTACGCTGTCAATCGCGCCTTTCTGTAAACTCACCTCACGACCTTTCGATGC
B23: NRC3_wobSeed4_DR0_A14G_o1 (dsDNA)
DNA 1: GCCCTACTGGGCCGAGGTCATTGATCAGTCAAAGCAGCGATTGACAGCGTAGAATGAAGG
DNA 2: CCTTCATTCTACGCTGTCAATCGCTGCTTTGACTGATCAATGACCTCGGCCCAGTAGGGC
B24: NRC3_wobSeed18_DR0_o1 (dsDNA)
DNA 1: GCGATACAGGGTCAAGGCCAGAGTACGCGTATTGATGCGATTGACAGCGTAGAATGAAGG
DNA 2: CCTTCATTCTACGCTGTCAATCGCATCAATACGCGTACTCTGGCCTTGACCCTGTATCGC
B25: NRC3_wobSeed69_DR2_A21T_o1 (dsDNA)
DNA 1: GCAGTCAAAGTTCACTAGGTTACGTAAGATTCAGCTGCGATTGACAGCGTAGAATGAAGG
DNA 2: CCTTCATTCTACGCTGTCAATCGCAGCTGAATCTTACGTAACCTAGTGAACTTTGACTGC
B26: NRC3_wobSeed113_DR4_T17G_o1 (dsDNA)
DNA 1: GCATATGTAGGTTAGCGGGGGTCATTCAGACTAGGCGCGATTGACAGCGTAGAATGAAGG
DNA 2: CCTTCATTCTACGCTGTCAATCGCGCCTAGTCTGAATGACCCCCGCTAACCTACATATGC
B27: NRC3_wobSeed92_DR3_A9G_o1 (dsDNA)
DNA 1: GCAGAATGGGGTTATTAAGATCAGGGAATTGCGGTCGCGATTGACAGCGTAGAATGAAGG
DNA 2: CCTTCATTCTACGCTGTCAATCGCGACCGCAATTCCCTGATCTTAATAACCCCATTCTGC
B28: NRC3_wobSeed21_DR0_A15T_o1 (dsDNA)
DNA 1: GCCGTCAAAGTTCATGGTAACGTAACAGAAAGCAGCGCGATTGACAGCGTAGAATGAAGG
DNA 2: CCTTCATTCTACGCTGTCAATCGCGCTGCTTTCTGTTACGTTACCATGAACTTTGACGGC
B29: NRC3_wobSeed17_DR0_A14G_o1 (dsDNA)
DNA 1: GCATATGTAGGTTGGGGTCATTCAGAAAGTAGGGAAGCGATTGACAGCGTAGAATGAAGG
DNA 2: CCTTCATTCTACGCTGTCAATCGCTTCCCTACTTTCTGAATGACCCCAACCTACATATGC
B30: NRC3_wobSeed72_DR2_T13C_o1 (dsDNA)
DNA 1: GCTCGAGTAGGTCACGGGGGCATTCAGGGATGAAGAGCGATTGACAGCGTAGAATGAAGG
DNA 2: CCTTCATTCTACGCTGTCAATCGCTCTTCATCCCTGAATGCCCCCGTGACCTACTCGAGC
B31: NRC3_wobSeed72_DR2_A6T_o1 (dsDNA)
DNA 1: GCTCGTGTAGGTTACGGGGGCATTCAGGGATGAAGAGCGATTGACAGCGTAGAATGAAGG
DNA 2: CCTTCATTCTACGCTGTCAATCGCTCTTCATCCCTGAATGCCCCCGTAACCTACACGAGC

Chain of LXRb:RXRa (P55055 whole entry, chain 1 of 2): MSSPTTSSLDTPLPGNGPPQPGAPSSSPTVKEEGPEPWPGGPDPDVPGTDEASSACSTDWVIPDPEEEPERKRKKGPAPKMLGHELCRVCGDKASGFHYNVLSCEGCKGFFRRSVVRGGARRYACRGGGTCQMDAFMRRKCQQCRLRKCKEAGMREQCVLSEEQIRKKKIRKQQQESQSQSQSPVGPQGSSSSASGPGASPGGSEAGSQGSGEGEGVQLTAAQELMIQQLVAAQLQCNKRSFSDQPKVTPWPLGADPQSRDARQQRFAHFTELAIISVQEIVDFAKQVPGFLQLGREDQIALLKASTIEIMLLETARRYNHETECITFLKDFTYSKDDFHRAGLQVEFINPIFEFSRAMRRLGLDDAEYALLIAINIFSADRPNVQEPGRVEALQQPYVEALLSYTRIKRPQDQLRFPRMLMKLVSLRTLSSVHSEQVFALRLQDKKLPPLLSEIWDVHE
Chain of LXRb:RXRa (P19793 whole entry, chain 2 of 2): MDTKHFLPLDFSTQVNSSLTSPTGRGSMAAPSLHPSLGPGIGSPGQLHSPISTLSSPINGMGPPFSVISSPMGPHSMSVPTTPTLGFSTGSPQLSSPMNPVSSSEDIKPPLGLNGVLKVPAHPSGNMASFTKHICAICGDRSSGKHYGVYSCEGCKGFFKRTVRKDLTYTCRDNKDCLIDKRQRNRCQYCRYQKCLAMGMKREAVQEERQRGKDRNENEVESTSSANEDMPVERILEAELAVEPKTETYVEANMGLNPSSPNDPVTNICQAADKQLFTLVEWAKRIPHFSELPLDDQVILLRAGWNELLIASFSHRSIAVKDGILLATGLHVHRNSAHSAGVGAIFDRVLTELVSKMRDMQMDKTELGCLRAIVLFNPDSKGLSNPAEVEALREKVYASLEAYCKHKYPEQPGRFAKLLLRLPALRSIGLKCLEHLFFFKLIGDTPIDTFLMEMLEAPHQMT

The target in this data set is LXRb:RXRa (Homo sapiens, UniProt P55055;P19793 full;full). Put plainly: no ligand; PBM; 270 nM : 90 nM RXRa; PBS pH 7.4, 2% milk, 0.02% Triton X-100, 1 mM DTT, BSA, 0.4 mg/ml salmon testes DNA. The following applies: tags: His kept;His cleaved; copies: 1;1; label: surface-attached array probe. The method in brief:
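Random background probes are the reference for binding z-scores. These scores derive from regression-normalized fluorescence on custom Agilent 4×180K protein-binding microarrays incubated 1 h with ligand-free nuclear receptor dimers. Binding was detected with antibodies against each partner (one per run).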
B1: the binding signal is 3.9 PBM z-score against 500 random probes.

B2: the binding signal was 3.89 PBM z-score against 500 random probes.

With B3, the binding signal is 3.78 PBM z-score against 500 random probes.

In the case of B4, the binding signal is 3.73 PBM z-score against 500 random probes.

Turning to B5, the binding signal is 3.53 PBM z-score against 500 random probes.

With B6, the binding signal is 3.81 PBM z-score against 500 random probes.

With B7, the binding signal was 3.68 PBM z-score against 500 random probes.

Regarding B8, the binding signal was 6.72 PBM z-score against 500 random probes.

Take B9: the binding signal is 3.58 PBM z-score against 500 random probes.

Regarding B10, the binding signal was 6.04 PBM z-score against 500 random probes.

On to B11, for which the binding signal is 3.76 PBM z-score against 500 random probes.

For the molecule B12, the binding signal was 5.84 PBM z-score against 500 random probes.

In the case of B13, the binding signal is 3.47 PBM z-score against 500 random probes.

Regarding B14, the binding signal is 6.19 PBM z-score against 500 random probes.

Turning to B15, the binding signal was 6.39 PBM z-score against 500 random probes.

Consider B16, for which the binding signal was 3.52 PBM z-score against 500 random probes.

In the case of B17, the binding signal was 3.61 PBM z-score against 500 random probes.

For B18, the binding signal is 6.26 PBM z-score against 500 random probes.

Regarding B19, the binding signal is 3.75 PBM z-score against 500 random probes.

On to B20, for which the binding signal was 3.54 PBM z-score against 500 random probes.

For the molecule B21, the binding signal is 3.62 PBM z-score against 500 random probes.

Regarding B22, the binding signal is 3.5 PBM z-score against 500 random probes.

For the molecule B23, the binding signal was 3.45 PBM z-score against 500 random probes.

As to B24, the binding signal is 3.7 PBM z-score against 500 random probes.

For B25, the binding signal was 3.64 PBM z-score against 500 random probes.

For B26, the binding signal is 6.23 PBM z-score against 500 random probes.

Regarding B27, the binding signal was 3.86 PBM z-score against 500 random probes.

As to B28, the binding signal is 3.49 PBM z-score against 500 random probes.

In the case of B29, the binding signal is 6.29 PBM z-score against 500 random probes.

On to B30, for which the binding signal is 6.37 PBM z-score against 500 random probes.

Take B31: the binding signal is 6.12 PBM z-score against 500 random probes.
